Experimental findings from patent US20260234700, “MUTANT CAS12J ENDONUCLEASES” (University of Copenhagen, published 2026) are described below.

This data set concerns the target T1, CasΦ3 (Cas12j-3) (Biggiephage).
T1 chain: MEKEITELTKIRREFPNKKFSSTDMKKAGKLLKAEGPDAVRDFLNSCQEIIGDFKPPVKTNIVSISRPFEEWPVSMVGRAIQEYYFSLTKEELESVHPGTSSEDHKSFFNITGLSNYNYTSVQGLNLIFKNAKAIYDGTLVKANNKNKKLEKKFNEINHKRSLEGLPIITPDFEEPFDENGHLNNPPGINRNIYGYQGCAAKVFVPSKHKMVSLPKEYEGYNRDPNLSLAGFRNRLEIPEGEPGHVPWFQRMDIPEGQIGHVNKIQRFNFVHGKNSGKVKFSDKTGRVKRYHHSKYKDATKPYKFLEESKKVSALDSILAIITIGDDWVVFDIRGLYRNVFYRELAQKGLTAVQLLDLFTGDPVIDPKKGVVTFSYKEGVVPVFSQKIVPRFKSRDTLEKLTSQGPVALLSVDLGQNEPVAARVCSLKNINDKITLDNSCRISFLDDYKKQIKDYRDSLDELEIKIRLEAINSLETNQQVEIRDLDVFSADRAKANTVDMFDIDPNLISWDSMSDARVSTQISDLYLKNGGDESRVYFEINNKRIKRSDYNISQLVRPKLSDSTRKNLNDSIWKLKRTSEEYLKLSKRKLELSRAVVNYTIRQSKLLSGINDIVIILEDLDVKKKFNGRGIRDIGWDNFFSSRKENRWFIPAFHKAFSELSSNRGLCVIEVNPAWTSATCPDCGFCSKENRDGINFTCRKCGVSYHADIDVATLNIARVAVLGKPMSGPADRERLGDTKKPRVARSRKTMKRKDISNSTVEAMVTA
In words: structure; cryo-EM 2.7 Å R-loop product complex; PAM TTC; Ni2+. To be noted: tags: C-terminal His6. How it is done:
For the preparation of the Cryo-EM sample, Ni²⁺ was used as a catalytic ion instead of Mg²⁺ due to the higher yield obtained with this metal. CasΦ3 RNP was prepared as described before. 25 nmol of RNP and 37 nmol of unlabeled dsDNA substrate were incubated in 25 ml of MonoQ A buffer (20 mM HEPES pH7.5, 200 mM KCl, 1 mM NiSO₄, 0.5 mM TCEP) for 2 h at 20° C. to allow DNA cleavage. The product of the reaction was loaded in a MonoQ column equilibrated with MonoQ A buffer, and CasΦ3 R-loop complex was separated from the RNP and the unbound DNA substrate by a salt gradient elution using MonoQ B buffer (20 mM HEPES pH7.5, 2 M KCl, 1 mM NiSO₄, 0.5 mM TCEP). CasΦ3 R-loop eluted at 16-20% of MonoQ buffer B […]. […] 2.5 μL of freshly purified CasΦ3 R-loop complex (Absorbance_{260 nm} of ~1.6) was applied to UltrAuFoil 300 mesh R0.6/1.0 holey grids (Quantifoil), glow-discharged for 60 s at 10 mA (Leica EM ACE200), and plunge-frozen in liquid ethane (pre-cooled with liquid nitrogen) using a Vitrobot Mark IV (FEI, Thermo Fisher Scientific) using the next conditions: blotting time 3 s, 100% humidity and 4° C.
We reconstituted and characterized a functional CasΦ3-crRNA complex (FIG. 5) and determined the structure of the enzyme after severing a target dsDNA by cryo-EM (FIG. 1). […]

B1: CasΦ3 crRNA ; target dsDNA with TTC PAM (NT/T strands) (ssRNA ; dsDNA)
RNA: UAUUGAUUGCCCAGUACGCUGGGACAGCUGGUAAUGGGAUACCUU
DNA 1: GTAATTCAGCTGGTAATGGGATACCTTGTGCTACAGC
DNA 2: GCTGTAGCACAAGGTATCCCATTACCAGCTGAATTAC
As for B1, the binding result is “binds”.
